Test results as given in the MegaScale stability set (Tsuboyama et al. 2023).

B1: HEEH_KT_rd6_0007 (parent)
chain: SIEEEIKKAEEAKEKGKTFIHGDFVATTEELLDELLKRLRKKL

Variants of: B1
Test: folding stability dG (cDNA display proteolysis); higher = more stable
Conditions: PBS, room temperature

| Variant | folding stability dG [kcal/mol] |
| --- | --- |
| SIEEEIKKAEEAKEKGKTFIHGDFVATTEELLDELLKRLVKKL [R40V] | 0.699 |
| SIEEEIKKAEEAKEKGKTFIHGDFVATTEELLDELLKRLWKKL [R40W] | 1.23 |
| SIEEEIKKAEEAKEKGKTFIHGDFVATTEELLDELLKRLGKKL [R40G] | 0.155 |
| SIEEEIKKAEEAKEKGKTFIHGDFVATTEELLDELLKRLRKKM [L43M] | 0.858 |
| SIEEEIKKAEEAKEKGKTFIHGDFVATTEELLDELLKRLRKKR [L43R] | 1.14 |
| SIEEEIKKAEEAKEKGKTFIHGDFVATTEELLDELLKRLRKKD [L43D] | 0.207 |
| SIEEEIKKAEEAKEKGKTFIHGDFVATTEELLDELLKRLRKKF [L43F] | 1.05 |
| SIEEEIKKAEEAKEKGKTFIHGDFVATTEELLDELLKRLRKKS [L43S] | 0.524 |
| SIEEEIKKAEEAKEKGKTFIHGDFVATTEELLDELLKRLRKKE [L43E] | 0.224 |
| SIEEEIKKAEEAKEKGKTFIHGDFVATTEELLDELLKRLRKKA [L43A] | 0.591 |
| SIEEEIKKAEEAKEKGKTFIHGDFVATTEELLDELLKRLRKKQ [L43Q] | 0.837 |
| SIEEEIKKAEEAKEKGKTFIHGDFVATTEELLDELLKRLRKKI [L43I] | 0.768 |
| SIEEEIKKAEEAKEKGKTFIHGDFVATTEELLDELLKRLRKKT [L43T] | 0.533 |
| SIEEEIKKAEEAKEKGKTFIHGDFVATTEELLDELLKRLRKKH [L43H] | 0.788 |
| SIEEEIKKAEEAKEKGKTFIHGDFVATTEELLDELLKRLRKKP [L43P] | 0.431 |
| SIEEEIKKAEEAKEKGKTFIHGDFVATTEELLDELLKRLRKKY [L43Y] | 0.992 |
| SIEEEIKKAEEAKEKGKTFIHGDFVATTEELLDELLKRLRKKK [L43K] | 0.822 |
| SIEEEIKKAEEAKEKGKTFIHGDFVATTEELLDELLKRLRKKG [L43G] | 0.444 |
| SIEEEIKKAEEAKEKGKTFIHGDFVATTEELLDELLKRLRKKN [L43N] | 0.566 |
| SIEEEIKKAEEAKEKGKTFIHGDFVATTEELLDELLKRLRKKV [L43V] | 0.562 |
| SIEEEIKKAEEAKEKGKTFIHGDFVATTEELLDELLKRLRKKC [L43C] | 1.31 |

| Variant | folding stability dG [kcal/mol] |
| --- | --- |
| SIEEEIKKAEEAKEKGKTFIHGDFVATTEELLDELLKRLRKKW [L43W] | 1.06 |
| SIEEEIKKAEEAKEKGKTFIHGDFVATTEELLDELLKRLRVKL [K41V] | 1.07 |
| SIEEEIKKAEEAKEKGKTFIHGDFVATTEELLDELLKRLRMKL [K41M] | 1.38 |
| SIEEEIKKAEEAKEKGKTFIHGDFVATTEELLDELLKRLRRKL [K41R] | 1.54 |
| SIEEEIKKAEEAKEKGKTFIHGDFVATTEELLDELLKRLRGKL [K41G] | 0.924 |
| SIEEEIKKAEEAKEKGKTFIHGDFVATTEELLDELLKRLRLKL [K41L] | 1.42 |
| SIEEEIKKAEEAKEKGKTFIHGDFVATTEELLDELLKRLRNKL [K41N] | 1.11 |
| SIEEEIKKAEEAKEKGKTFIHGDFVATTEELLDELLKRLRWKL [K41W] | 1.08 |
| SIEEEIKKAEEAKEKGKTFIHGDFVATTEELLDELLKRLRDKL [K41D] | 1.1 |
| SIEEEIKKAEEAKEKGKTFIHGDFVATTEELLDELLKRLRTKL [K41T] | 1.04 |
| SIEEEIKKAEEAKEKGKTFIHGDFVATTEELLDELLKRLRSKL [K41S] | 1.12 |
| SIEEEIKKAEEAKEKGKTFIHGDFVATTEELLDELLKRLRYKL [K41Y] | 0.949 |
| SIEEEIKKAEEAKEKGKTFIHGDFVATTEELLDELLKRLRPKL [K41P] | 0.057 |
| SIEEEIKKAEEAKEKGKTFIHGDFVATTEELLDELLKRLRQKL [K41Q] | 1.41 |
| SIEEEIKKAEEAKEKGKTFIHGDFVATTEELLDELLKRLRHKL [K41H] | 1.15 |
| SIEEEIKKAEEAKEKGKTFIHGDFVATTEELLDELLKRLRFKL [K41F] | 0.949 |
| SIEEEIKKAEEAKEKGKTFIHGDFVATTEELLDELLKRLRAKL [K41A] | 1.57 |
| SIEEEIKKAEEAKEKGKTFIHGDFVATTEELLDELLKRLREKL [K41E] | 1.19 |
| SIEEEIKKAEEAKEKGKTFIHGDFVATTEELLDELLKRLRIKL [K41I] | 1.2 |
| SIEEEIKKAEEAKEKGKTFIHGDFVATTEELLDELLKRLRKFL [K42F] | 1.38 |
| SIEEEIKKAEEAKEKGKTFIHGDFVATTEELLDELLKRLRKAL [K42A] | 1.42 |

| Variant | folding stability dG [kcal/mol] |
| --- | --- |
| SIEEEIKKAEEAKEKGKTFIHGDFVATTEELLDELLKRLRKGL [K42G] | 0.621 |
| SIEEEIKKAEEAKEKGKTFIHGDFVATTEELLDELLKRLRKLL [K42L] | 1.82 |
| SIEEEIKKAEEAKEKGKTFIHGDFVATTEELLDELLKRLRKSL [K42S] | 1.13 |
| SIEEEIKKAEEAKEKGKTFIHGDFVATTEELLDELLKRLRKTL [K42T] | 1.19 |
| SIEEEIKKAEEAKEKGKTFIHGDFVATTEELLDELLKRLRKDL [K42D] | 0.935 |
| SIEEEIKKAEEAKEKGKTFIHGDFVATTEELLDELLKRLRKWL [K42W] | 1.83 |
| SIEEEIKKAEEAKEKGKTFIHGDFVATTEELLDELLKRLRKML [K42M] | 1.74 |
| SIEEEIKKAEEAKEKGKTFIHGDFVATTEELLDELLKRLRKVL [K42V] | 1.23 |
| SIEEEIKKAEEAKEKGKTFIHGDFVATTEELLDELLKRLRKYL [K42Y] | 1.5 |
| SIEEEIKKAEEAKEKGKTFIHGDFVATTEELLDELLKRLRKHL [K42H] | 1.1 |
| SIEEEIKKAEEAKEKGKTFIHGDFVATTEELLDELLKRLRKPL [K42P] | 0.483 |
| SIEEEIKKAEEAKEKGKTFIHGDFVATTEELLDELLKRLRKNL [K42N] | 0.7 |
| SIEEEIKKAEEAKEKGKTFIHGDFVATTEELLDELLKRLRKQL [K42Q] | 1.42 |
| SIEEEIKKAEEAKEKGKTFIHGDFVATTEELLDELLKRLRKRL [K42R] | 1.34 |
| SIEEEIKKAEEAKEKGKTFIHGDFVATTEELLDELLKRLRKEL [K42E] | 1.23 |
| SIEEEIKKAEEAKEKGKTFIHGDFVATTEELLDELLKRLRKIL [K42I] | 1.59 |
| SIEEEIKKAEEAKEKGKTFIHGDFVATTEELLDELLKRWRKKL [L39W] | 0.902 |
| SIEEEIKKAEEAKEKGKTFIHGDFVATTEELLDELLKRVRKKL [L39V] | 0.079 |
| SIEEEIKKAEEAKEKGKTFIHGDFVATTEELLDELLKRYRKKL [L39Y] | 0.697 |
